Laboratory results taken from publication PMC5536852.
Where two headings read alike, the source gives them in different places.

Assays:
[1] = biological target: PP1γ, active form (His-tagged protein phosphatase 1 gamma) (UniProt P36873); test: enzyme inhibition kinetics
[2] = biological target: PP1γ, active form (His-tagged protein phosphatase 1 gamma) (UniProt P36873); test: enzyme inhibition kinetics; remark: listed apart in the source

UniProt P36873, sequence (P36873 whole entry): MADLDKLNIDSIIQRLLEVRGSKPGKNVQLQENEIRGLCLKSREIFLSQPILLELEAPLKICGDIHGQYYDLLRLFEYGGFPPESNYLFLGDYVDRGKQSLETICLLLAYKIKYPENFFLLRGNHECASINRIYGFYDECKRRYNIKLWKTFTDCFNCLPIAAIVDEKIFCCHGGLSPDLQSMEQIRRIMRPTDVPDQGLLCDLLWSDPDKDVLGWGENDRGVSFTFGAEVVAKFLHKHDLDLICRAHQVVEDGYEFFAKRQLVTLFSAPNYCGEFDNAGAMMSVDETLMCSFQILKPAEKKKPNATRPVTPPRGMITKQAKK

Ki [1]: 350 nM
Ki [2]: 410 nM
Substance: His-tagged RRM1 (isolated RNA recognition motif 1 of SRSF1) (domain or fragment)
